# Data reported in patent US20220396819A1, “METHOD FOR PRODUCING PEPTIDE HAVING PHYSIOLOGICAL ACTIVITY, AND PEPTIDE COMPRISING SHORT LINKER” (priority 2019, published 2022).
# Positions of bridges follow the written chain, without caps; N, C: chain ends. No end group written: not given here.
# T1: thrombopoietin receptor c-Mpl (human, UniProt P40238 26-635)
# T1 sequence (looked up): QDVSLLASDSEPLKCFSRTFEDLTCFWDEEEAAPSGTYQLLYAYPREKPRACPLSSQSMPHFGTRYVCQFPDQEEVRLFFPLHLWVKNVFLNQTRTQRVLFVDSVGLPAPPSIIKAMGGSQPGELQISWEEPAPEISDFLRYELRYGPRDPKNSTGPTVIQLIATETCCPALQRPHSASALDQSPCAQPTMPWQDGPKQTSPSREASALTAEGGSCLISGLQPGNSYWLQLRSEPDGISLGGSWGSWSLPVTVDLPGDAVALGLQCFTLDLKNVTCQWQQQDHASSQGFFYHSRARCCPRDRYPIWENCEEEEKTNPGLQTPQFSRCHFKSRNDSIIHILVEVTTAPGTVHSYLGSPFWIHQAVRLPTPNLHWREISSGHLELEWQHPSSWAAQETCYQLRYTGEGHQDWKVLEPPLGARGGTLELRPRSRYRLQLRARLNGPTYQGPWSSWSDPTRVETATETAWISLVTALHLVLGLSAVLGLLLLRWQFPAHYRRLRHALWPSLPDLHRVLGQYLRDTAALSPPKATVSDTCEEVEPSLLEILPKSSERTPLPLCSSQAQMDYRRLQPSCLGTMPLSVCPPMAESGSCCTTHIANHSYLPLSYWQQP
# T2: EpoR (UniProt P19235 25-508, limits assumed)
# T2 sequence (looked up): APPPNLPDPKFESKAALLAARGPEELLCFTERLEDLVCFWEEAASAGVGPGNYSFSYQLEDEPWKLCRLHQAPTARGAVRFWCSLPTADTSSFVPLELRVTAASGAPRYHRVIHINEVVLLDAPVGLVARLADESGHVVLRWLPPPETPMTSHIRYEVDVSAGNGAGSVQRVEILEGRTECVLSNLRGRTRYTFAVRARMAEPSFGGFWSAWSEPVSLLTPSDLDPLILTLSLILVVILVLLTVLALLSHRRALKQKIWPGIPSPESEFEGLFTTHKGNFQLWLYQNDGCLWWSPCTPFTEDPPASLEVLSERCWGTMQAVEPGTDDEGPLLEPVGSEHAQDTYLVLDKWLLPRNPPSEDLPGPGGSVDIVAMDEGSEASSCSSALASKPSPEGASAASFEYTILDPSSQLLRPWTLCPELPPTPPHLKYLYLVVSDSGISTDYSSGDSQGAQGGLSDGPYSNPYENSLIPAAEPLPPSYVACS
# B1: TPO2-PAS100 (peptide)
# peptide: GGCADGPTLREWISFCGGAAPAAPAPAAPAAPAPAAPAAPAPAAPAAPAPAAPAAPAPAAPAAPAPAAPAAPAPAAPAAPAPAAPAAPAPAAPAAPAPAAPAAPAPAAPAAPAPAAPAGGCADGPTLREWISFCGG
# modifications: two disulfide bonds in the molecule
# B2: AET-EPO-GS22 (peptide)
# peptide: AETGGLYACHMGPMTWVCQPLRGGGGGSGGGGSGGGGSGGGGSGGGGLYACHMGPMTWVCQPLRG
# modifications: disulfide 9-18, 51-60
# B3: AET-VEGFR_D2-PAS16 (peptide)
# peptide: AETAGPTWCEDDWYYCWLFGTAAPAAPAPAAPAAPAPVCWEDSWGGEVCWLFGT
# modifications: disulfide 9-16, 39-49
# B4: AET-EPO-PAS100 (peptide)
# peptide: AETGGLYACHMGPMTWVCQPLRGAAPAAPAPAAPAAPAPAAPAAPAPAAPAAPAPAAPAAPAPAAPAAPAPAAPAAPAPAAPAAPAPAAPAAPAPAAPAAPAPAAPAAPAPAAPAAPAPAAPAGGLYACHMGPMTWVCQPLRG
# modifications: two disulfide bonds in the molecule
# B5: TPO2-PAS49 (peptide)
# peptide: GGCADGPTLREWISFCGGAAPAAPAPAAPAAPAPAAPAAPAPAAPAAPAPAAPAAPAPAAPAAPAPAGGCADGPTLREWISFCGG
# modifications: two disulfide bonds in the molecule
# B6: MAETAGPTWCEDDWYYCWLFGTSAPSPSSAPASASAPASPASASASASPASSPASASSASPAASSASPASSVCWEDSWGGEVCWLFGT (peptide)
# chain: MAETAGPTWCEDDWYYCWLFGTSAPSPSSAPASASAPASPASASASASPASSPASASSASPAASSASPASSVCWEDSWGGEVCWLFGT
# modifications: MAET-VEGFR_D2-PAS49-b; DISULFID (10)..(17) Disulfid bridge between Cys-10 and Cys-17; DISULFID (73)..(83) Disulfid bridge between Cys-73 and Cys-83
# B7: AET-EPO-PAS49 (peptide)
# peptide: AETGGLYACHMGPMTWVCQPLRGAAPAAPAPAAPAAPAPAAPAAPAPAAPAAPAPAAPAAPAPAAPAAPAPAGGLYACHMGPMTWVCQPLRG
# modifications: two disulfide bonds in the molecule
# B8: AET-VEGFR_D2-PAS49 (peptide)
# peptide: AETAGPTWCEDDWYYCWLFGTAAPAAPAPAAPAAPAPAAPAAPAPAAPAAPAPAAPAAPAPAAPAAPAPAVCWEDSWGGEVCWLFGT
# modifications: two disulfide bonds in the molecule
# B9: AET-VEGFR_D2-GS16 (peptide)
# peptide: AETAGPTWCEDDWYYCWLFGTGGGGSGGGGSGGGGSGVCWEDSWGGEVCWLFGT
# modifications: disulfide 9-16, 39-49
# B10: AET-EPO-GS8 (peptide)
# peptide: AETGGLYACHMGPMTWVCQPLRGGGGGSGGGGGLYACHMGPMTWVCQPLRG
# modifications: disulfide 9-18, 37-46
# Legend:
# VEGFR [1] = target: T3, VEGFR (Homo sapiens, UniProt P35968); assay: VEGF inhibitory ability, luciferase assay in VEGFR/NFAT Reporter HEK293 cells; format: cell-based
# T3 construct: host or cells: VEGFR/NFAT Reporter HEK293 cells
# Procedure: The VEGF inhibitory ability of the VEGFR_D2-PAS heterodimer peptide was evaluated by luciferase assay. 40,000 cell/well VEGFR/NFAT Reporter HEK293 cells (BPS Bioscience) were seeded and incubated overnight in a 5% CO2 incubator at 37° C. The cells were incubated overnight in Assay medium (MEM medium (Nacalai Tesque), 1×MEM Non-Essential Amino Acids Solution (Thermo Fisher Scientific), 1 mM Sodium Pyruvate (Nacalai Tesque), 1% Penicillin-Streptomycin (Sigma Aldrich), and 0.3% FBS (Thermo Fisher Scientific)) to starvation. […] The cells were stimulated by culturing in a 5% CO2 incubator at 37° C. for 4 hours.
# One-Glo Luciferase Assay System (Promega) was used to detect the signal intensity. Medium supernatant in an amount of 50 μL was removed, 50 μL of One-Glo reagent was added, and the cells were lysed for 10 minutes at room temperature. The luminescence emitted from the cell lysate solution was detected with a Nivo plate reader (Perkin Elmer) to quantify the activation of the VEGFR-NFAT pathway, and the relative signal activity value for the sample without addition of evaluation compound was determined and used as relative receptor activity.
# The VEGF inhibitory ability of the cell-free expressed VEGFR_D2-PAS heterodimer peptide was evaluated by luciferase assay. 40,000 cell/well VEGFR/NFAT Reporter HEK293 cells (BPS Bioscience) were seeded and incubated overnight in a 5% CO2 incubator at 37° C. The cells were incubated overnight in Assay medium (MEM medium (Nacalai Tesque), 1×MEM Non-Essential Amino Acids Solution (Thermo Fisher Scientific), 1 mM Sodium Pyruvate (Nacalai Tesque), 1% Penicillin-Streptomycin (Sigma Aldrich), and 0.3% FBS (Thermo Fisher Scientific)) to starvation. To the Assay medium, 100 μL of 10 ng/mL human recombinant VEGF (R&D Systems) was added, and further, MAET-VEGFR_D2-PAS16, MAET-VEGFR_D2-PAS49-b, MAET-VEGFR_D2-PAS100-b, or a cell-free expression solution containing MAET-VEGFR_D2-GS16, or a cell-free expression solution with unexpressed peptide was added at a predetermined dilution factor, and 100 μL of the Assay medium was added to the cells. The cells were stimulated by culturing in a 5% CO2 incubator at 37° C. for 4 hours.
# The VEGF inhibitory ability of the VEGFR_D2-PAS heterodimer peptide linker variant was evaluated by luciferase assay. 40,000 cell/well VEGFR/NFAT Reporter HEK293 cells (BPS Bioscience) were seeded and incubated overnight in a 5% CO2 incubator at 37° C. The cells were incubated overnight in Assay medium (MEM medium (Nacalai Tesque), 1×MEM Non-Essential Amino Acids Solution (Thermo Fisher Scientific), 1 mM Sodium Pyruvate (Nacalai Tesque), 1% Penicillin-Streptomycin (Sigma Aldrich), and 0.3% FBS (Thermo Fisher Scientific)) to starvation. To the Assay medium, 10 ng/mL human recombinant VEGF (R&D Systems) was added, and further, a culture supernatant containing VEGFR_D2-PAS16, VEGFR_D2-PAS49, or VEGFR_D2-PAS100 at a predetermined concentration was added, and 100 μL of the Assay medium was added to the cells. The cells were stimulated by culturing in a 5% CO2 incubator at 37° C. for 4 hours. Note that VEGFR_D2-PAS16 was obtained according to the method described in Example 27.
# [2] = target: T1, thrombopoietin receptor c-Mpl; assay: cell-based or functional assay
# EpoR = target: T2, EpoR; assay: cell-based or functional assay
# VEGFR [3] = target: VEGFR (UniProt P35968 20-1356, limits assumed); assay: cell-based or functional assay
# VEGFR (UniProt P35968 20-1356, limits assumed), sequence (P35968 20-1356 limits assumed): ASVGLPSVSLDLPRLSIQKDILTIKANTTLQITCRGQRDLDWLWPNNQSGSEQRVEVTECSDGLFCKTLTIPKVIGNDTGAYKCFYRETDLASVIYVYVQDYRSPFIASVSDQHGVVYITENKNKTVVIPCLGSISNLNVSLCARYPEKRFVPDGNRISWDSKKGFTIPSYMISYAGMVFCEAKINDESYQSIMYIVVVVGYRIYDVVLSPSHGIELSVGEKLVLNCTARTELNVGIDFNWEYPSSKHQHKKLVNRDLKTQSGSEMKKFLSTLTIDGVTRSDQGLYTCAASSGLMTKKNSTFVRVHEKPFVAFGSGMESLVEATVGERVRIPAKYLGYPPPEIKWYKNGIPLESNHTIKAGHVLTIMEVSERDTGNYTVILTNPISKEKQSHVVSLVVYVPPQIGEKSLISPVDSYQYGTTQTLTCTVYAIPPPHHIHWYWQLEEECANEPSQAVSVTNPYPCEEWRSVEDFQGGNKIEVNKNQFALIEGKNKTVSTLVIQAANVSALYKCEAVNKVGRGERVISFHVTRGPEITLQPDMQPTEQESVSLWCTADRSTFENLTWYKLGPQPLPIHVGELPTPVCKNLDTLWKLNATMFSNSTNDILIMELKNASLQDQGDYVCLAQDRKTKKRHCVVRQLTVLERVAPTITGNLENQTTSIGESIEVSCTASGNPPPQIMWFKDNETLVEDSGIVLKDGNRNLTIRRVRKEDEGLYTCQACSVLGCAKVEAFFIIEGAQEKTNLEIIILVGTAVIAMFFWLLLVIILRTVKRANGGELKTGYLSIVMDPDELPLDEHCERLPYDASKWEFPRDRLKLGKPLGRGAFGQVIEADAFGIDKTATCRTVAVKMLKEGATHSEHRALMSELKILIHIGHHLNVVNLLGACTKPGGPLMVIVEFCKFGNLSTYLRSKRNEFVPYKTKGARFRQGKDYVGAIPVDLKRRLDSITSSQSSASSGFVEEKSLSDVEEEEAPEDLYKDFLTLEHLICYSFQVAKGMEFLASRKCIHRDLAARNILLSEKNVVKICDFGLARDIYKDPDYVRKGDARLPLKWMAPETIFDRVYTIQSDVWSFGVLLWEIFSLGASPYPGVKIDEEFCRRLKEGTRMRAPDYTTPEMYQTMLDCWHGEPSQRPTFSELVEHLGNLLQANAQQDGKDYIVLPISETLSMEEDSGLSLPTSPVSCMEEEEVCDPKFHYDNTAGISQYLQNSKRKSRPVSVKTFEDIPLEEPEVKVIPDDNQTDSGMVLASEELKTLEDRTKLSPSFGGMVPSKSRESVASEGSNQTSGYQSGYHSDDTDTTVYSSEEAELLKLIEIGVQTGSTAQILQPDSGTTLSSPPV
# T3 sequence (P35968 20-1356): as the sequence (P35968 20-1356 limits assumed) above
molecule,measurement,setting,value
"AETAGPTWCEDDWYYCWLFGTAAPAAPAPAAPAAPAPAAPAAPAPAAPAAPAPAAPAAPAPAAPAAPAPAVCWEDSWGGEVCWLFGT (disulfide 9-16, 72-82) [AET-VEGFR_D2-PAS49]",IC50,VEGFR [1],1.43 nM
recombinant human TPO (from UniProt P40225 22-195) (ligand),"relative CREB phosphorylation level (pCREB ELISA, HEL cells, 100 ng/mL rhTPO)",[2],143%
B1,"relative CREB phosphorylation level (pCREB ELISA, HEL cells)",[2],112%
B2,EC50,EpoR,1.3 ng/mL
B3,IC50,VEGFR [3],1.5 ng/mL
B4,EC50,EpoR,6.6 ng/mL
B5,"relative CREB phosphorylation level (pCREB ELISA, HEL cells)",[2],131%
"GGCADGPTLREWISFCGGAAPAAPAPGGCADGPTLREWISFCGG (disulfide 3-16, 29-42) [TPO2-PAS8]","relative CREB phosphorylation level (pCREB ELISA, HEL cells)",[2],136%
B6,VEGF inhibitory activity (relative VEGF activity),"VEGFR [1]; Example 39, cell-free expression solution, 10 ng/mL VEGF, FIGS. 71 and 72",higher inhibitory activity than MAET-VEGFR_D2-PAS100-b
"GGCADGPTLREWISFCGGGGGGSGGGGGCADGPTLREWISFCGG (disulfide 3-16, 29-42) [TPO2-GS8]","relative CREB phosphorylation level (pCREB ELISA, HEL cells)",[2],121%
B7,EC50,EpoR,4.3 ng/mL
B8,IC50,VEGFR [3],12 ng/mL
B9,IC50,VEGFR [3],16 ng/mL
B10,EC50,EpoR,0.53 ng/mL
